Read-outs that look alike come from different tables or passages of the source. One block for each binder: values may come before it.
How the values were obtained:
HLA-A*6802 (human) [1] = test: competition with 125I standard peptide for purified HLA; gel filtration; conditions: remark: other sources report otherwise
HLA-A*0301 (human) [2] = test: competition with 125I-labeled standard peptide for purified HLA-A*0301, gel filtration
HLA-A*0301 (human) [3] = test: competition with radiolabeled standard peptide on purified HLA-A*0301, gel filtration; conditions: scale: ratio
HLA-A*6802 (human) [4] = test: competition with 125I-labeled probe peptide for purified HLA, gel filtration
HLA-A*0201 (human) [5] = test: as above
HLA-A*0206 (human) [6] = test: as above; conditions: remark: other sources report otherwise
HLA-A*0201 (human) [7] = test: inhibition of 125I-labelled probe peptide binding to purified HLA; gel filtration
HLA-A*0203 (human) [8] = test: as above
HLA-A*0202 (human) [9] = test: inhibition of 125I-labelled probe peptide binding to purified HLA, gel filtration
HLA-A*6802 (human) [10] = test: as above
HLA-A*0201 (human) [11] = test: as above
HLA-A*0206 (human) [12] = test: as above
HLA-A*0203 (human) [13] = test: as above
HLA-A*0202 (human) [14] = test: competition with 125I standard peptide for purified HLA; gel filtration
HLA-A*0201 (human) [15] = test: as above
HLA-A*0206 (human) [16] = test: as above
HLA-A*0203 (human) [17] = test: as above
HLA-A*0202 (human) [18] = test: competitive inhibition of 125I-labelled standard peptide binding to purified HLA
HLA-A*0201 (human) [19] = test: as above
HLA-A*0206 (human) [20] = test: as above
HLA-A*0203 (human) [21] = test: as above
HLA-A*0202 (human) [22] = test: competitive inhibition of 125I-labelled standard peptide binding to purified HLA, gel filtration
HLA-A*0201 (human) [23] = test: as above
HLA-A*0206 (human) [24] = test: as above
HLA-A*0203 (human) [25] = test: as above
HLA-A*0202 (human) [26] = test: inhibition of 125I-labelled probe peptide binding to purified HLA; gel filtration
HLA-A*6802 (human) [27] = test: as above
HLA-A*0206 (human) [28] = test: as above
HLA-A*0201 (human) [29] = test: competitive inhibition of 125I-labelled standard peptide binding to purified HLA, gel filtration; ratio = IC50 standard / IC50 test peptide; conditions: remark: other sources report otherwise
HLA-A*0203 (human) [30] = test: as above; conditions: remark: other sources report otherwise
HLA-A*0201 (human) [31] = test: competition with 125I-labelled standard peptide 941.01 for purified HLA-A*0201, gel filtration
HLA-A*0202 (human) [32] = test: competition with 125I-labelled standard peptide 941.01 for purified HLA-A*0202, gel filtration
HLA-A*0206 (human) [33] = test: competition with 125I-labelled standard peptide 941.01 for purified HLA-A*0206, gel filtration
HLA-A*0202 (human) [34] = test: competition with 125I-labeled probe peptide for purified HLA, gel filtration
[35] = remark: other sources report otherwise

- IC50 (HLA-A*6802 (human) [1]): 6670 nM
Binder: KVTEFMLCV (modifications not checked) [Peptide 1418.21 … (HuK2.191.V9)]

- binding affinity ratio (IC50 of standard peptide / IC50 of test peptide) (HLA-A*0301 (human) [2]): 0.0003
Binder: LVFRHGDR (modifications not checked) [LVFRHGDR (PAP, position 40, 8 amino acids)]

- binding affinity ratio (HLA-A*0301 (human) [3]): 0.0002
Binder: VLTAAHCIR (modifications not checked) [PSA 56 peptide …]

- IC50 (HLA-A*6802 (human) [4]; [35]): 571 nM
- IC50 (HLA-A*0201 (human) [5]; [35]): 313 nM
- IC50 (HLA-A*0206 (human) [6]): 40 nM
Binder: GTPEGDLVYV (modifications not checked) [Peptide 1418.29 … (PSM.168.T2)]

- IC50 (HLA-A*0201 (human) [7]; [35]): 73 nM
- IC50 (HLA-A*0203 (human) [8]; [35]): 256 nM
Binder: ALDVYNGLL (modifications not checked) [peptide 1177.02 (PAP.299)]

- IC50 (HLA-A*0202 (human) [9]): 6.3 nM
- IC50 (HLA-A*6802 (human) [10]): 205 nM
- IC50 (HLA-A*0201 (human) [11]): 13 nM
- IC50 (HLA-A*0206 (human) [12]): 5.2 nM
- IC50 (HLA-A*0203 (human) [13]): 2.8 nM
Binder: SLQCVSLHLV (modifications not checked) [Peptide 1418.52 (HuK2.170.V10) …]

- IC50 (HLA-A*0202 (human) [14]): 3.9 nM
- IC50 (HLA-A*0201 (human) [15]): 1.8 nM
- IC50 (HLA-A*0206 (human) [16]): 42 nM
- IC50 (HLA-A*0203 (human) [17]): 17 nM
Binder: SLSLGFLFLV (modifications not checked) [Peptide 1419.52 … (PAP.13.V10)]

- binding affinity ratio (IC50 of standard peptide / IC50 of test peptide) (HLA-A*0301 (human) [2]): 0.0005
Binder: NFTEIASKF (modifications not checked) [… (PSM, position 638, 9 amino acids)]

- IC50 (HLA-A*0202 (human) [9]; [35]): 4.9 nM
- IC50 (HLA-A*6802 (human) [10]; [35]): 5000 nM
- IC50 (HLA-A*0201 (human) [11]; [35]): 263 nM
- IC50 (HLA-A*0206 (human) [12]; [35]): 446 nM
Binder: SLQCVSLHLL (modifications not checked) [Peptide 1419.66 (HuK2.170) …]

- IC50 (HLA-A*0202 (human) [18]): 3 nM
- IC50 (HLA-A*0201 (human) [19]): 6.8 nM
- IC50 (HLA-A*0206 (human) [20]): 65 nM
- IC50 (HLA-A*0203 (human) [21]): 18 nM
Binder: FLTLSVTWIGV (modifications not checked) [Peptide 63.0186, … (PSA.3.V11)]

- IC50 (HLA-A*0202 (human) [9]; [35]): 0.8 nM
- IC50 (HLA-A*6802 (human) [10]; [35]): 2160 nM
- IC50 (HLA-A*0201 (human) [11]; [35]): 8.6 nM
- IC50 (HLA-A*0206 (human) [12]; [35]): 2310 nM
- IC50 (HLA-A*0203 (human) [13]; [35]): 10 nM
Binder: SLHLLSNDMCV (modifications not checked) [Peptide 1418.66 (HuK2.175.V11) …]

- binding affinity ratio (ratio to standard peptide) (HLA-A*0202 (human) [22]): 0.001
- binding affinity ratio (ratio to standard peptide) (HLA-A*0201 (human) [23]): 0.0001
- binding affinity ratio (ratio to standard peptide) (HLA-A*0206 (human) [24]): -0.0001
- binding affinity ratio (ratio to standard peptide) (HLA-A*0203 (human) [25]): 0.0001
Binder: ITDVVKVL (modifications not checked) [ITDVVKVL (Kallikrein, position 132)]

- binding affinity ratio (ratio to standard peptide) (HLA-A*0202 (human) [22]; [35]): 0.01
- binding affinity ratio (ratio to standard peptide) (HLA-A*0201 (human) [23]; [35]): 0.0003
- binding affinity ratio (ratio to standard peptide) (HLA-A*0206 (human) [24]; [35]): 0.0005
Binder: ITSWGPEPCA (modifications not checked) [… (Kallikrein, position 226)]

- IC50 (HLA-A*0202 (human) [9]; [35]): 51 nM
- IC50 (HLA-A*6802 (human) [10]; [35]): 2580 nM
- IC50 (HLA-A*0201 (human) [11]; [35]): 500 nM
- IC50 (HLA-A*0203 (human) [13]; [35]): 417 nM
Binder: SLQCVSLHL (modifications not checked) [Peptide 60.0191 (HuK2.170) …]

- IC50 (HLA-A*0202 (human) [26]): 12 nM
- IC50 (HLA-A*6802 (human) [27]): 5.7 nM
- IC50 (HLA-A*0201 (human) [7]): 294 nM
- IC50 (HLA-A*0206 (human) [28]): 195 nM
- IC50 (HLA-A*0203 (human) [8]): 122 nM
Binder: TVSGLQMAV (modifications not checked) [peptide 60.0213 (PAP.292.V9)]

- binding affinity ratio (HLA-A*0201 (human) [29]): 0.005
- binding affinity ratio (HLA-A*0203 (human) [30]): 0.02
Binder: VLSIALSV (modifications not checked) [VLSIALSV (Kallikrein, position 5)]

- binding affinity ratio (ratio to standard peptide) (HLA-A*0202 (human) [22]; [35]): 0.012
- binding affinity ratio (ratio to standard peptide) (HLA-A*0201 (human) [23]; [35]): 0.001
- binding affinity ratio (ratio to standard peptide) (HLA-A*0206 (human) [24]; [35]): 0.0001
- binding affinity ratio (ratio to standard peptide) (HLA-A*0203 (human) [25]; [35]): 0.0096
Binder: ITSWGSEPCAL (modifications not checked)

- binding affinity ratio (ratio to standard peptide) (HLA-A*0202 (human) [22]): 0.0036
- binding affinity ratio (ratio to standard peptide) (HLA-A*0201 (human) [23]): 0.0003
- binding affinity ratio (ratio to standard peptide) (HLA-A*0206 (human) [24]): 0.0001
- binding affinity ratio (ratio to standard peptide) (HLA-A*0203 (human) [25]): 0.003
Binder: ITSWGSEPCA (modifications not checked)

- IC50 (HLA-A*0202 (human) [9]; [35]): 1.3 nM
- IC50 (HLA-A*6802 (human) [10]; [35]): 860 nM
- IC50 (HLA-A*0206 (human) [12]; [35]): 37 nM
- IC50 (HLA-A*0203 (human) [13]; [35]): 5.3 nM
Binder: HLLSNDMCARV (modifications not checked) [Peptide 1418.67 (HuK2.177.V11) …]

- binding affinity ratio (IC50 of standard peptide / IC50 of test peptide) (HLA-A*0201 (human) [31]): -0.0001
- binding affinity ratio (IC50 of standard peptide / IC50 of test peptide) (HLA-A*0202 (human) [32]): 0.0006
- binding affinity ratio (IC50 of standard peptide / IC50 of test peptide) (HLA-A*0206 (human) [33]): 0.0006
Binder: SIALSVGCT (modifications not checked) [… (Kallikrein, position 7)]

- IC50 (HLA-A*0203 (human) [21]; [35]): 115 nM
Binder: MLLRLSEPAEV (modifications not checked) [Peptide 1389.12, … (PSA.118.V11)]

- binding affinity ratio (IC50 of standard peptide / IC50 of test peptide) (HLA-A*0301 (human) [2]): 0.007
Binder: MSLLKNRFLR (modifications not checked) [… (PSA, position 99, 10 amino acids)]

- IC50 (HLA-A*0202 (human) [34]): 0.4 nM
- IC50 (HLA-A*6802 (human) [4]): 320 nM
- IC50 (HLA-A*0201 (human) [5]): 64 nM
Binder: LMYSLVHNL (modifications not checked) [Peptide 1126.14 … (PSM.469)]

- IC50 (HLA-A*0202 (human) [26]): 1.8 nM
- IC50 (HLA-A*6802 (human) [27]): 60 nM
- IC50 (HLA-A*0201 (human) [7]): 25 nM
- IC50 (HLA-A*0203 (human) [8]): 17 nM
Binder: LLWQPIPVHV (modifications not checked) [peptide 1419.69 (PAP.136.V10)]

- binding affinity ratio (HLA-A*0301 (human) [3]): 0.0005
Binder: VLPFDCRDYA (modifications not checked) [PSM 592 peptide …]

- IC50 (HLA-A*0202 (human) [26]; [35]): 94 nM
- IC50 (HLA-A*6802 (human) [27]; [35]): 2290 nM
- IC50 (HLA-A*0201 (human) [7]; [35]): 250 nM
- IC50 (HLA-A*0206 (human) [28]; [35]): 451 nM
Binder: GVSIWNPILV (modifications not checked) [peptide 63.0041 (PAP.128.V10)]

- binding affinity ratio (IC50 of standard peptide / IC50 of test peptide) (HLA-A*0301 (human) [2]): 0.0006
Binder: NLLHETDSA (modifications not checked) [… (PSM, position 3, 9 amino acids)]

- IC50 (HLA-A*0206 (human) [16]): 43 nM
- IC50 (HLA-A*0203 (human) [17]): 9.6 nM
Binder: LTFFWLDRSV (modifications not checked) [Peptide 1418.23 … (PAP.21.T2)]

- IC50 (HLA-A*0202 (human) [26]; [35]): 269 nM
- IC50 (HLA-A*0201 (human) [7]; [35]): 455 nM
- IC50 (HLA-A*0203 (human) [8]; [35]): 909 nM
Binder: GVSIWNPIV (modifications not checked) [peptide 60.0207 (PAP.128.V9)]

- IC50 (HLA-A*0202 (human) [26]; [35]): 47 nM
- IC50 (HLA-A*0201 (human) [7]; [35]): 238 nM
- IC50 (HLA-A*0206 (human) [28]; [35]): 336 nM
Binder: PLLLWQPIPV (modifications not checked) [peptide 63.0042 (PAP.134.L2)]

- IC50 (HLA-A*6802 (human) [27]; [35]): 1820 nM
- IC50 (HLA-A*0201 (human) [7]; [35]): 263 nM
Binder: KLRELSELSV (modifications not checked) [peptide 63.0048 (PAP.234.V10)]

- binding affinity ratio (HLA-A*0301 (human) [3]): 0.0006
Binder: WATEDTMTK (modifications not checked) [PAP 226 peptide …]

- IC50 (HLA-A*0206 (human) [16]; [35]): 51 nM
Binder: FMLCAGLWV (modifications not checked) [Peptide 1418.22 … (HuK2.195.V9)]

- IC50 (HLA-A*0201 (human) [7]; [35]): 278 nM
- IC50 (HLA-A*0206 (human) [28]; [35]): 2640 nM
- IC50 (HLA-A*0203 (human) [8]; [35]): 133 nM
Binder: ALFPPEGVSI (modifications not checked) [peptide 1419.6 (PAP.122)]

- binding affinity ratio (HLA-A*0301 (human) [3]; [35]): 0.0003
Binder: VTKFMLCAGR (modifications not checked) [PSA 188 peptide …]
